The test system of data set [1] is HeLa Kyoto. Put plainly: thermal stability score vs G1/S (z-score of summed log2 fold changes over temperatures); higher = more thermally stable than in G1/S.
In data set [2] the test system is HeLa Kyoto. Put plainly: melting temperature (median over replicates), in situ; higher = more thermally stable.
Data set [3] deals with HeLa Kyoto. Put plainly: solubility change mitosis vs G1/S (difference of NP-40 vs SDS log2 ratios) (log2 ratio difference); higher = more soluble in mitosis.
The subject of data set [4] is HeLa Kyoto. Put plainly: solubility in G1/S (NP-40 vs SDS abundance) (log2 ratio); higher = more soluble. Conditions: cell cycle stage: G1/S.
Where [5] appears, read: cell cycle stage: early G1 (4.5 h after nocodazole release).
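Throughout, for melting temperature (median over replicates), in situ: HeLa Kyoto cells synchronized by double thymidine or nocodazole block, proteins quantified by TMT10plex mass spectrometry, three independent biological replicates.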
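Throughout, for solubility change mitosis vs G1/S (difference of NP-40 vs SDS log2 ratios): synchronized HeLa Kyoto cells (double thymidine block for G1/S, nocodazole release for mitosis), protein amounts in NP-40 versus SDS lysates quantified by mass spectrometry, three biological replicates.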
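Throughout, for solubility in G1/S (NP-40 vs SDS abundance): HeLa Kyoto cells arrested at G1/S by double thymidine block, proteins quantified by TMT10plex mass spectrometry in mild NP-40 versus SDS extracts, three biological replicates.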
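Throughout, for thermal stability score vs G1/S (z-score of summed log2 fold changes over temperatures): synchronized HeLa Kyoto cells, proteins quantified by TMT10plex mass spectrometry, three biological replicates, mitosis taken 0.5 h after nocodazole release, G1/S directly after double thymidine block.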

MAP7D1, sequence (chain, as listed by the source): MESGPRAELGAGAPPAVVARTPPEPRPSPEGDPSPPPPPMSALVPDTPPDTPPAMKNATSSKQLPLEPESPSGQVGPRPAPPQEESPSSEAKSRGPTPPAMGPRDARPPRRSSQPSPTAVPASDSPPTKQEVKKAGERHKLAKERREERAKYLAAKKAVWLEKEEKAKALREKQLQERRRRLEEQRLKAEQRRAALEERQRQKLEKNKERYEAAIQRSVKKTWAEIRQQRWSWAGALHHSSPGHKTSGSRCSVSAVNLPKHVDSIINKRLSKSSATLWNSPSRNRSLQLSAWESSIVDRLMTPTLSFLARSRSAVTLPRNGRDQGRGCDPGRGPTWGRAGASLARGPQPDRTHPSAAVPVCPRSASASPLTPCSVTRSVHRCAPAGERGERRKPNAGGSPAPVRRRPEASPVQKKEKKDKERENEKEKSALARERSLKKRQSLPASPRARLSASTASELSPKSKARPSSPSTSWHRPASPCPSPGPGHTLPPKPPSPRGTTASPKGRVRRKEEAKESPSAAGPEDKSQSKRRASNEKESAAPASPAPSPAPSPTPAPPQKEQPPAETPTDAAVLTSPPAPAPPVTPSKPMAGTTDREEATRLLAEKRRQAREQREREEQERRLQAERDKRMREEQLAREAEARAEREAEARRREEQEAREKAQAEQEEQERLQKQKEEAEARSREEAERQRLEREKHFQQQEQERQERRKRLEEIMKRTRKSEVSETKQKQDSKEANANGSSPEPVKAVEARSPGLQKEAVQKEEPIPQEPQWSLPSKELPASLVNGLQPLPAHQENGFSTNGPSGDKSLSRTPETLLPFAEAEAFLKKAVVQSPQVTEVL

With “MVSVINTVDTSHEDMIHDAQMDYYGTRLATCSSDRSVKIFDVRNGGQILIADLRGHEGPVWQVAWAHPMYGNILASCSYDRKVIIWREENGTWEKSHEHAGHDSSVNSVCWAPHDYGLILACGSSDGAISLLTYTGEGQWEVKKINNAHTIGCNAVSWAPAVVPGSLIDHPSGQKPNYIKRFASGGCDNLIKLWKEEEDGQWKEEQKLEAHSDWVRDVAWAPSIGLPTSTIASCSQDGRVFIWTCDDASSNTWSPKLLHKFNDVVWHVSWSITANILAVSGGDNKVTLWKESVDGQWVCISDVNKGQGSVSASVTEGQQNEQ [SEC13]”, the results for the thermal stability score in the data set on HeLa Kyoto [1] (setting [5]) and in the data set with HeLa Kyoto [1] (cell cycle stage: mitosis) were -0.768 and -0.265, respectively. The melting temperature with HeLa Kyoto [2] (cell cycle stage: G1/S) was 50.5 °C; in the data set with HeLa Kyoto [2] (cell cycle stage: mitosis), 50.4 °C. Besides, the “solubility change mitosis (log2)” value in the data set on HeLa Kyoto [3] is -0.09. Further, the “solubility in G1/S (log2)” value in the data set on HeLa Kyoto [4] is -0.204.
As to “MAAVRGLRVSVKAEAPAGPALGLPSPEAESGVDRGEPEPMEVEEGELEIVPVRRSLKELIPDTSRRYENKAGSFITGIDVTSKEAIEKKEQRAKRFHFRSEVNLAQRNVALDRDMMKKAIPKVRLETIYICGVDEMSTQDVFSYFKEYPPAHIEWLDDTSCNVVWLDEMTATRALINMSSLPAQDKIRSRDASEDKSAEKRKKDKQEDSSDDDEAEEGEVEDENSSDVELDTLSQVEEESLLRNDLRPANKLAKGNRLFMRFATKDDKKELGAARRSQYYMKYGNPNYGGMKGILSNSWKRRYHSRRIQRDVIKKRALIGDDVGLTSYKHRHSGLVNVPEEPIEEEEEEEEEEEEEEEEDQDMDADDRVVVEYHEELPALKQPRERSASRRSSASSSDSDEMDYDLELKMISTPSPKKSMKMTMYADEVESQLKNIRNSMRADSVSSSNIKNRIGNKLPPEKFADVRHLLDEKRQHSRPRPPVSSTKSDIRQRLGKRPHSPEKAFSSNPVVRREPSSDVHSRLGVPRQDSKGLYADTREKKSGNLWTRLGSAPKTKEKNTKKVDHRAPGAEEDDSELQRAWGALIKEKEQSRQKKSRLDNLPSLQIEVSRESSSGSEAES [NCBP3]”, the thermal stability score with HeLa Kyoto [1] (setting [5]) came out at 1.38; with HeLa Kyoto [1] (cell cycle stage: mitosis), 2.56. Besides, the melting temperature was 45.6 °C in the data set on HeLa Kyoto [2] (cell cycle stage: G1/S) and 49.4 °C in the data set with HeLa Kyoto [2] (cell cycle stage: mitosis). In the data set on HeLa Kyoto [3], the “solubility change mitosis (log2)” value was 0.394. Also, the “solubility in G1/S (log2)” value in the data set on HeLa Kyoto [4] was -0.537.
For “MELFLAGRRVLVTGAGKGIGRGTVQALHATGARVVAVSRTQADLDSLVRECPGIEPVCVDLGDWEATERALGSVGPVDLLVNNAAVALLQPFLEVTKEAFDRSFEVNLRAVIQVSQIVARGLIARGVPGAIVNVSSQCSQRAVTNHSVYCSTKGALDMLTKVMALELGPHKIRVNAVNPTVVMTSMGQATWSDPHKAKTMLNRIPLGKFAEVEHVVNAILFLLSDRSGMTTGSTLPVEGGFWAC [DCXR]”, the thermal stability score is -1.92 with HeLa Kyoto [1] (setting [5]) and -1.77 in the data set on HeLa Kyoto [1] (cell cycle stage: mitosis). The melting temperature in the data set on HeLa Kyoto [2] (cell cycle stage: G1/S) came to 57.7 °C; in the data set with HeLa Kyoto [2] (cell cycle stage: mitosis), 55.7 °C. In addition, the “solubility change mitosis (log2)” value with HeLa Kyoto [3] was -0.0268. Besides, the “solubility in G1/S (log2)” value in the data set with HeLa Kyoto [4] came out at 0.282.
As to MAP7D1, the thermal stability score in the data set with HeLa Kyoto [1] (setting [5]) is -1.09; with HeLa Kyoto [1] (cell cycle stage: mitosis), -4.66. Also, the melting temperature was 52.8 °C in the data set on HeLa Kyoto [2] (cell cycle stage: G1/S) and 51.2 °C with HeLa Kyoto [2] (cell cycle stage: mitosis). In addition, the “solubility change mitosis (log2)” value in the data set on HeLa Kyoto [3] came out at 0.536. Besides, in the data set with HeLa Kyoto [4], the “solubility in G1/S (log2)” value was found to be 0.337.
In the case of “MAAPGGRGRSLSGLLPAQTSLEYALLDAVTQQEKDSLVYQYLQKVDGWEQDLSVPEFPEGLEWLNTEEPISVYKDLCGKIVVLDFFTYCCINCIHLLPDLHALEHTYSDKDGLLIIGVHSAKFPNEKVLDNIKSAVLRYNITHPMVNDADASLWQELEVSCWPTLVILGPRGNMLFSLIGEGHKDKLFLYTSIALKYYKDRGQIRDNKIGIKLYKDSLPPSPLLFPGKVTVDQVTDRLVIADTGHHRILVVWKNGQIQYSIGGPNPGRKDGIFSESTFNSPQGVAIMNNIIYVADTENHLIRKIDLEAEKVSTVAGIGIQGTDKEGGAKGEQQPISSPWDVVFGTSGSEVQRGDILWIAMAGTHQIWALLLDSGKLPKKNELTKGTCLRFAGSGNEENRNNAYPHKAGFAQPSGLSLASEDPWSCLFVADSESSTVRTVSLKDGAVKHLVGGERDPMNLFAFGDVDGVGINAKLQHPLGVTWDKKRNLLYVADSYNHKIKVVDPKTKNCTTLAGTGDTNNVTSSSFTESTFNEPGGLCIGENGELLYVADTNNHQIKVMDLETKMVSVLPIFRSENAVVDGPFLVEKQKTLPKLPKSAPSIRLSPVTACAGQTLQFKLRLDLPSGSKLTEGVSSCWFLTAEGNEWLLQGQIAAGDIENISSQPTISLQIPDDCLSLEAIVSVSVFLYYCSADSSACMMKAILFSQPLQITDTQQGCIAPVELRYVF [NHLRC2]”, the thermal stability score in the data set with HeLa Kyoto [1] (setting [5]) is 0.332; with HeLa Kyoto [1] (cell cycle stage: mitosis), -0.145. Also, the melting temperature in the data set with HeLa Kyoto [2] (cell cycle stage: G1/S) was 52 °C; in the data set on HeLa Kyoto [2] (cell cycle stage: mitosis), 52.1 °C. The “solubility change mitosis (log2)” value in the data set on HeLa Kyoto [3] is -0.199. In the data set on HeLa Kyoto [4], the “solubility in G1/S (log2)” value is 0.0639.
In the case of “MRLLPRLLLLLLLVFPATVLFRGGPRGLLAVAQDLTEDEETVEDSIIEDEDDEAEVEEDEPTDLVEDKEEEDVSGEPEASPSADTTILFVKGEDFPANNIVKFLVGFTNKGTEDFIVESLDASFRYPQDYQFYIQNFTALPLNTVVPPQRQATFEYSFIPAEPMGGRPFGLVINLNYKDLNGNVFQDAVFNQTVTVIEREDGLDGETIFMYMFLAGLGLLVIVGLHQLLESRKRKRPIQKVEMGTSSQNDVDMSWIPQETLNQINKASPRRLPRKRAQKRSVGSDE [SSR1]”, the values for the thermal stability score with HeLa Kyoto [1] (setting [5]) and with HeLa Kyoto [1] (cell cycle stage: mitosis) were 0.9 and 0.359, respectively. For the same substance, the melting temperature in the data set on HeLa Kyoto [2] (cell cycle stage: G1/S) turned out to be 57.4 °C; in the data set with HeLa Kyoto [2] (cell cycle stage: mitosis) it was 58.8 °C. Besides, the “solubility change mitosis (log2)” value in the data set on HeLa Kyoto [3] was found to be 0.0174. Moreover, the “solubility in G1/S (log2)” value in the data set on HeLa Kyoto [4] worked out at 0.474.
As to “MAGTGLVAGEVVVDALPYFDQGYEAPGVREAAAALVEEETRRYRPTKNYLSYLTAPDYSAFETDIMRNEFERLAARQPIELLSMKRYELPAPSSGQKNDITAWQECVNNSMAQLEHQAVRIENLELMSQHGCNAWKVYNENLVHMIEHAQKELQKLRKHIQDLNWQRKNMQLTAGSKLREMESNWVSLVSKNYEIERTIVQLENEIYQIKQQHGEANKENIRQDF [BCAS2]”, the results for the thermal stability score in the data set with HeLa Kyoto [1] (setting [5]) and in the data set with HeLa Kyoto [1] (cell cycle stage: mitosis) were -0.858 and -0.925, respectively. Also, the melting temperature with HeLa Kyoto [2] (cell cycle stage: G1/S) was found to be 50.4 °C; in the data set with HeLa Kyoto [2] (cell cycle stage: mitosis), 50.3 °C. For the same substance, the “solubility change mitosis (log2)” value in the data set with HeLa Kyoto [3] is 0.721. In addition, the “solubility in G1/S (log2)” value with HeLa Kyoto [4] was -0.134.
On to “MALHSMRKARERWSFIRALHKGSAAAPALQKDSKKRVFSGIQPTGILHLGNYLGAIESWVRLQDEYDSVLYSIVDLHSITVPQDPAVLRQSILDMTAVLLACGINPEKSILFQQSQVSEHTQLSWILSCMVRLPRLQHLHQWKAKTTKQKHDGTVGLLTYPVLQAADILLYKSTHVPVGEDQVQHMELVQDLAQGFNKKYGEFFPVPESILTSMKKVKSLRDPSAKMSKSDPDKLATVRITDSPEEIVQKFRKAVTDFTSEVTYDPAGRAGVSNIVAVHAAVTGLSVEEVVRRSAGMNTARYKLAVADAVIEKFAPIKREIEKLKLDKDHLEKVLQIGSAKAKELAYTVCQEVKKLVGFL [WARS2]”, for which the thermal stability score came out at 0.66 with HeLa Kyoto [1] (setting [5]) and 0.794 in the data set on HeLa Kyoto [1] (cell cycle stage: mitosis). For the same substance, the melting temperature in the data set with HeLa Kyoto [2] (cell cycle stage: G1/S) was 48.7 °C; with HeLa Kyoto [2] (cell cycle stage: mitosis), 49.2 °C. In the data set on HeLa Kyoto [3], the “solubility change mitosis (log2)” value was -0.0372. For the same substance, the “solubility in G1/S (log2)” value in the data set on HeLa Kyoto [4] is 0.308.

The values are drawn from the supplement of paper PMC5998384.
